This note sets out measurements from patent US20240409645A1 (DUALYX, published 2024).

This test addresses T1, human IL-2 receptor (IL-2Rα/IL-2Rβ/γc) (human, UniProt P01589 22-272; P14784 27-551; P31785 23-369).
T1 sequence 1: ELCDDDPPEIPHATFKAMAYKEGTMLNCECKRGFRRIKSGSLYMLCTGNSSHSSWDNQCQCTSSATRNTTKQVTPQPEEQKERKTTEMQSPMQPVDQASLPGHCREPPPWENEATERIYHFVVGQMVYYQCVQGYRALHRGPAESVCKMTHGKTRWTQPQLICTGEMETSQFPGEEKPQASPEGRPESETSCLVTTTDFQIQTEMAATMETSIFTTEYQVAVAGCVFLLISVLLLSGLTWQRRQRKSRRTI
T1 sequence 2: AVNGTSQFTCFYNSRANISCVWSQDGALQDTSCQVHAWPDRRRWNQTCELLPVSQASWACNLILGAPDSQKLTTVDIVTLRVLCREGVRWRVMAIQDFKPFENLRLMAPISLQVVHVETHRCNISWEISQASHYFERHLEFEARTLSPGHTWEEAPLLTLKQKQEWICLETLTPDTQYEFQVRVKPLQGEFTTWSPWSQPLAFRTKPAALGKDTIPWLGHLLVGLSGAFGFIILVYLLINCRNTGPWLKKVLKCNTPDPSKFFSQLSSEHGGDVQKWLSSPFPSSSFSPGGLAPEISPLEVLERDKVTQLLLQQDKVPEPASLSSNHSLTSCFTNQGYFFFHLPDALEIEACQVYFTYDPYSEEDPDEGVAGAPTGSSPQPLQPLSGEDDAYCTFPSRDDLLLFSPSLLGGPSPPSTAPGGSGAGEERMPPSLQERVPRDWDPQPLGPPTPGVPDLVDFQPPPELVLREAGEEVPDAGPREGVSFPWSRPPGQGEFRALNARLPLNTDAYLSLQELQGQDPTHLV
T1 sequence 3: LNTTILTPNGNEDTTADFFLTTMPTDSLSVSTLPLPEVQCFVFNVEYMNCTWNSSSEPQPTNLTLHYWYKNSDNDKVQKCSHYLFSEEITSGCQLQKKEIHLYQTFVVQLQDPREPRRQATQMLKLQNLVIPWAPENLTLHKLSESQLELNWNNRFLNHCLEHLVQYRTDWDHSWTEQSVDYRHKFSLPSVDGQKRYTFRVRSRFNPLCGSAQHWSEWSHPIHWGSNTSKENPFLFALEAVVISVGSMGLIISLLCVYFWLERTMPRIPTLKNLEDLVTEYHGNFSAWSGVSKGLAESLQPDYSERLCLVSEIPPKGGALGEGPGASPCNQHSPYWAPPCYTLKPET
Description: cell-based or functional assay.

Some results are limits rather than exact numbers.

B1: DC00055 (other)
chain 1: QVQLVESGGGLVQPGGSLRLSCATSGFTFRNNFMSWVRQAPGKGLEWVSTISYGGESTTYAESVKGRFTISRDNAKNTLYLQMNNLKPEDTAVYYCAKATSYDSIRSGSRGQGTQVTVSSGGGGSGGGGSGGGGSEVQLVESGGGLVQTGGSLRLSCAASGGTFSRDAMAWFRQVPGKEREFVALISWSGATTNYADSVKGRFAISRDNGKNTVYLQMNRLKPADTAIYYCAADRRPMGSRSYFEPTEYDDWGQGTQVTVSSGGGGSGGGGSGGGGSDKTHTCPPCPAPEAAGGPSVFLFPPKPKDTLMISRTPEVTCVVVDVSHEDPEVKFNWYVDGVEVHNAKTKPREEQYNSTYRVVSVLTVLHQDWLNGKEYKCKVSNKALGAPIEKTISKAKGQPREPQVYTLPPSRDELTKNQVSLTCLVKGFYPSDIAVEWESNGQPENNYKTTPPVLDSDGSFLLYSKLTVDKSRWQQGNVFSCSVMHEALHNHYTQKSLSLSPGK
chain 2: QVQLVESGGGLVQPGGSLRLSCATSGFTFRNNFMSWVRQAPGKGLEWVSTISYGGESTTYAESVKGRFTISRDNAKNTLYLQMNNLKPEDTAVYYCAKATSYDSIRSGSRGQGTQVTVSSGGGGSGGGGSGGGGSQVQLVESGGGLVQAGGSLTLSCAAPGRTFGTDVVGWFRQAPGKEREFVASISRSGDGIYYDDSVKGRFTISRNNAWNTVNLQMNSLKVEDTAVYYCAAGDGWSTYDYWGQGTQVTVSSGGGGSGGGGSGGGGSEVQLVESGGGLVQTGGSLRLSCAASGGTFSRDAMAWFRQVPGKEREFVALISWSGATTNYADSVKGRFAISRDNGKNTVYLQMNRLKPADTAIYYCAADRRPMGSRSYFEPTEYDDWGQGTQVTVSSGGGGSGGGGSGGGGSDKTHTCPPCPAPEAAGGPSVFLFPPKPKDTLMISRTPEVTCVVVDVSHEDPEVKFNWYVDGVEVHNAKTKPREEQYNSTYRVVSVLTVLHQDWLNGKEYKCKVSNKALGAPIEKTISKAKGQPREPQVYTLPPSRDELTKNQVSLTCLVKGFYPSDIAVEWESNGQPENNYKTTPPVLDSDGSFFLYSRLTVDKSRWQQGNVFSCSVMHEALHNHYTQKSLSLSPGK
Take B1: the “EC50 (nM) pSTAT5, NK, human PBMCs” value came to 0.889 nM; the “EC50 (nM) pSTAT5, Treg, human PBMCs” value was less than 0.1 pM; the “Fold Max signal (% pSTAT5+) Treg/NK” value stood at 3 fold; the “Max signal (% pSTAT5+), NK” value is 34 % pSTAT5+. The “Max signal (% pSTAT5+), Treg” value came to 97 % pSTAT5+ and the “fold EC50 NK/Treg” value was greater than 8890 fold.

B2: DC00058 (other)
chain 1: B1 chain 1
chain 2: QVQLVESGGGLVQAGGSLTLSCAAPGRTFGTDVVGWFRQAPGKEREFVASISRSGDGIYYDDSVKGRFTISRNNAWNTVNLQMNSLKVEDTAVYYCAAGDGWSTYDYWGQGTQVTVSSGGGGSGGGGSGGGGSEVQLVESGGGLVQTGGSLRLSCAASGGTFSRDAMAWFRQVPGKEREFVALISWSGATTNYADSVKGRFAISRDNGKNTVYLQMNRLKPADTAIYYCAADRRPMGSRSYFEPTEYDDWGQGTQVTVSSGGGGSGGGGSGGGGSQVQLVESGGGLVQPGGSLRLSCATSGFTFRNNFMSWVRQAPGKGLEWVSTISYGGESTTYAESVKGRFTISRDNAKNTLYLQMNNLKPEDTAVYYCAKATSYDSIRSGSRGQGTQVTVSSDKTHTCPPCPAPEAAGGPSVFLFPPKPKDTLMISRTPEVTCVVVDVSHEDPEVKFNWYVDGVEVHNAKTKPREEQYNSTYRVVSVLTVLHQDWLNGKEYKCKVSNKALGAPIEKTISKAKGQPREPQVYTLPPSRDELTKNQVSLTCLVKGFYPSDIAVEWESNGQPENNYKTTPPVLDSDGSFFLYSRLTVDKSRWQQGNVFSCSVMHEALHNHYTQKSLSLSPGK
As for B2, the “EC50 (nM) pSTAT5, NK, human PBMCs” value came to 1.87 nM; the “EC50 (nM) pSTAT5, Treg, human PBMCs” value worked out at 0.0025 nM; the “Fold Max signal (% pSTAT5+) Treg/NK” value is 3 fold; the “Max signal (% pSTAT5+), NK” value stood at 34 % pSTAT5+. Moreover, the “Max signal (% pSTAT5+), Treg” value is 97 % pSTAT5+ and the “fold EC50 NK/Treg” value was 748 fold.

B3: DC00057 (other)
chain 1: B1 chain 1
chain 2: QVQLVESGGGLVQPGGSLRLSCATSGFTFRNNFMSWVRQAPGKGLEWVSTISYGGESTTYAESVKGRFTISRDNAKNTLYLQMNNLKPEDTAVYYCAKATSYDSIRSGSRGQGTQVTVSSGGGGSGGGGSGGGGSEVQLVESGGGLVQTGGSLRLSCAASGGTFSRDAMAWFRQVPGKEREFVALISWSGATTNYADSVKGRFAISRDNGKNTVYLQMNRLKPADTAIYYCAADRRPMGSRSYFEPTEYDDWGQGTQVTVSSGGGGSGGGGSGGGGSQVQLVESGGGLVQAGGSLTLSCAAPGRTFGTDVVGWFRQAPGKEREFVASISRSGDGIYYDDSVKGRFTISRNNAWNTVNLQMNSLKVEDTAVYYCAAGDGWSTYDYWGQGTQVTVSSGGGGSGGGGSGGGGSDKTHTCPPCPAPEAAGGPSVFLFPPKPKDTLMISRTPEVTCVVVDVSHEDPEVKFNWYVDGVEVHNAKTKPREEQYNSTYRVVSVLTVLHQDWLNGKEYKCKVSNKALGAPIEKTISKAKGQPREPQVYTLPPSRDELTKNQVSLTCLVKGFYPSDIAVEWESNGQPENNYKTTPPVLDSDGSFFLYSRLTVDKSRWQQGNVFSCSVMHEALHNHYTQKSLSLSPGK
Turning to B3, the “EC50 (nM) pSTAT5, NK, human PBMCs” value was determined as 0.548 nM; the “EC50 (nM) pSTAT5, Treg, human PBMCs” value was 0.00208 nM; the “Fold Max signal (% pSTAT5+) Treg/NK” value is 5 fold; the “Max signal (% pSTAT5+), NK” value worked out at 19 % pSTAT5+. Moreover, the “Max signal (% pSTAT5+), Treg” value was 89 % pSTAT5+ and the “fold EC50 NK/Treg” value came to 263 fold.

B4: DC00059 (other)
chain 1: B1 chain 1
chain 2: QVQLVESGGGLVQAGGSLTLSCAAPGRTFGTDVVGWFRQAPGKEREFVASISRSGDGIYYDDSVKGRFTISRNNAWNTVNLQMNSLKVEDTAVYYCAAGDGWSTYDYWGQGTQVTVSSGGGGSGGGGSGGGGSQVQLVESGGGLVQPGGSLRLSCATSGFTFRNNFMSWVRQAPGKGLEWVSTISYGGESTTYAESVKGRFTISRDNAKNTLYLQMNNLKPEDTAVYYCAKATSYDSIRSGSRGQGTQVTVSSGGGGSGGGGSGGGGSEVQLVESGGGLVQTGGSLRLSCAASGGTFSRDAMAWFRQVPGKEREFVALISWSGATTNYADSVKGRFAISRDNGKNTVYLQMNRLKPADTAIYYCAADRRPMGSRSYFEPTEYDDWGQGTQVTVSSGGGGSGGGGSGGGGSDKTHTCPPCPAPEAAGGPSVFLFPPKPKDTLMISRTPEVTCVVVDVSHEDPEVKFNWYVDGVEVHNAKTKPREEQYNSTYRVVSVLTVLHQDWLNGKEYKCKVSNKALGAPIEKTISKAKGQPREPQVYTLPPSRDELTKNQVSLTCLVKGFYPSDIAVEWESNGQPENNYKTTPPVLDSDGSFFLYSRLTVDKSRWQQGNVFSCSVMHEALHNHYTQKSLSLSPGK
As for B4, the “EC50 (nM) pSTAT5, NK, human PBMCs” value was 0.0401 nM; the “EC50 (nM) pSTAT5, Treg, human PBMCs” value was 0.252 pM; the “Fold Max signal (% pSTAT5+) Treg/NK” value came to 6 fold; the “Max signal (% pSTAT5+), NK” value amounted to 14 % pSTAT5+. In addition, the “Max signal (% pSTAT5+), Treg” value is 86 % pSTAT5+ and the “fold EC50 NK/Treg” value was 159 fold.

B5: DC00061 (other)
chain 1: B1 chain 1
chain 2: QVQLVESGGGLVQAGGSLTLSCAAPGRTFGTDVVGWFRQAPGKEREFVASISRSGDGIYYDDSVKGRFTISRNNAWNTVNLQMNSLKVEDTAVYYCAAGDGWSTYDYWGQGTQVTVSSGGGGSGGGGSGGGGSQVQLVESGGGLVQPGGSLRLSCATSGFTFRNNFMSWVRQAPGKGLEWVSTISYGGESTTYAESVKGRFTISRDNAKNTLYLQMNNLKPEDTAVYYCAKATSYDSIRSGSRGQGTQVTVSSDKTHTCPPCPAPEAAGGPSVFLFPPKPKDTLMISRTPEVTCVVVDVSHEDPEVKFNWYVDGVEVHNAKTKPREEQYNSTYRVVSVLTVLHQDWLNGKEYKCKVSNKALGAPIEKTISKAKGQPREPQVYTLPPSRDELTKNQVSLTCLVKGFYPSDIAVEWESNGQPENNYKTTPPVLDSDGSFFLYSRLTVDKSRWQQGNVFSCSVMHEALHNHYTQKSLSLSPGK
As to B5, the “EC50 (nM) pSTAT5, NK, human PBMCs” value was 0.165 nM; the “EC50 (nM) pSTAT5, Treg, human PBMCs” value is 0.00427 nM; the “Fold Max signal (% pSTAT5+) Treg/NK” value turned out to be 9 fold; the “Max signal (% pSTAT5+), NK” value worked out at 5 % pSTAT5+. In addition, the “Max signal (% pSTAT5+), Treg” value stood at 44 % pSTAT5+ and the “fold EC50 NK/Treg” value was 39 fold.
